# In article PMC6737007:
# How the values were obtained:
# [1] = biological target: single A140C mutant of the VSD of KVAP channel; test: SEC; Superdex 200 in 20-mM Tris-HCl, 150-mM NaCl, pH 5.5, 0.3% DPC, calibrated by Stokes radii; with SDS-PAGE; VSD-KVAP A140C also after 1.5-mM DTT
# [2] = biological target: second voltage-sensing domain (VSD-II) of the human NaV1.4 channel, residues 554-696, with C660S, C661S and C687S (human) (UniProt P35499); test: NMR titration; 15N-labeled VSD-II titrated with unlabeled Hm-3 in buffer B with DPC/LDAO micelles (11/11 mM), pH 5.5, 45°C, 800 MHz; chemical shifts fitted with two sites on VSD-II and Hm-3 partitioning to micelles (K M = 90 μM)
Substance,stoichiometry N [1],"KD (K V), cytoplasmic binding site [2] [µM]","KD (K V), extracellular binding site [2] [µM]"
single A140C mutant of the VSD of KVAP channel (domain or fragment),2,,
gating modifier toxin Hm-3 from the crab spider Heriaeus melloteei (peptide),,7,11
